These results are taken from patent US5854005A, “Platelet blockade assay” (Mount Sinai School of Medicine, priority 1996, dated 1998).

Data set [1] has as its target T1, GPIIb/IIIa receptor (Homo sapiens, UniProt P05106+P08514).
T1 construct: GP IIb/IIIa receptor proteins, which are found on the cell surface of platelets; endogenous in cells; host or cells: platelets in citrated whole blood of donors
Nature of the data set: Fibrinogen-coated bead agglutination whole blood assay with activating peptide. The arrangement: key to agglutination assay result: the assay remained positive (i.e., 1-4+); The assay became negative (i.e., O+). The class given is cell-based. Conditions: for agglutination assay result: 2 μM activating peptide. On the procedure:
Blood (9 volumes) is drawn from a patient by syringe and placed into standard blue-top tube containing sodium citrate (1 volume of 3.8% sodium citrate). Alternatively, blood may be drawn by Vacutainer directly into a blue-top tube. The tube is then inverted to mix the anticoagulant with the whole blood. Then 70 μl of this mixture is added to an assay tube containing 100 μl of buffer (0.15M NaCl, 0.5 mM CaCl2, 0.01M HEPES, pH 7.4), 10 μl of well-mixed fibrinogen coated beads prepared by the method of Example 1, and 5-10 µl of isoSer-Phe-Leu-Leu-Arg-Asn (SEQ ID NO:3).
The assay tube is then placed on a rocker and rocked at 20 cpm at room temperature for two minutes. The tube is removed from the rocker, held vertically to allow the blood to drain and viewed. If less than 80% of GPIIb/IIIa receptor blockade has been achieved in the patient's blood, agglutinated beads are readily seen in the streak marking where the blood tilted back and forth.
(§1) Purified peak I-2 fibrinogen is coupled to 3 μm, blue carboxylated beads (obtained from Polysciences, Inc.) using a water soluble carbodiimide (EDC) by the method of Example 1. The assay is conducted by adding to a 12×75 mm glass test tube: 100 μl of buffer, 20 μl of beads (2.5% slurry), and 5 μl of isoSer-Phe-Leu-Leu-Arg-Asn. Blood is collected into citrate anticoagulant and 70 μl of the whole blood is added to the test tube, which is then capped, placed on a rocking platform, and rocked at 16 cycles/min. When normal blood was tested using 1 or 2 μM activating peptide, a 4+ agglutination endpoint was easily observed in all donors (n=10) by 2 min. […] Using 2 μM activating peptide, the assay remained positive (i.e., 1-4+) at c7E3 Fab concentrations of 0.8 (n=1), 1.2 (n=1), 1.5 (n=3), and 1.8 (n=2) μg/ml, corresponding to GPIIb/IIIa receptor blockade of 56%; 77%; 68, 68, and 82%; and 66 and 73%. The assay became negative (i.e., O+) at c7E3 Fab concentrations of 1.2 (n=1), 1.5 (n=1), 1.8 (n=3) and 2.4 (n=2) μg/ml, corresponding to GPIIb/IIIa receptor blockade of 77%; 92%; 83, 88 and 94%; and 88 and 89%. […] The percentage of receptor blockade was assayed by radiolabeled 7E3 binding as reported in Coller et al., N.Y. Acad. Sci., 614:193 (1993).

The next data set has as its system thrombin receptor. The note with it: cited from earlier work.
The subject of data set [2] is aminopeptidase M. The note with it: incubated in plasma; cited from earlier work.
Data set [3] concerns the target T1, GPIIb/IIIa receptor. Conditions: cited from earlier work.
Data set [4] has as its target T1, GPIIb/IIIa receptor. Nature of the data set: GPIIb/IIIa receptor blockade assayed by radiolabeled 7E3 binding. On the procedure: as §1
Data set [5] has as its system aminopeptidase M. The note with it: in the presence of aminopeptidase M; cited from earlier work.
Where [6] appears, read: blood pretreated with c7E3 Fab at 5 doses between 0.8-3.0 μg/ml for about 10 minutes at 22° C.

Values joined by “and” are separate entries in the source; they are usually repeats but may differ in a detail not shown here. Identical values can stand only once.

For the compound heparin [reference compound], on GPIIb/IIIa receptor [1] (heparin 3.5 U/ml), the “effect on the agglutination assay results” value is on record as “did not appreciably affect the results”.

As for “T-14: fourteen amino acid peptide corresponding to the new N-terminus of the cleaved thrombin receptor protein (SFLLRNPNDKYEPF)”, the platelet aggregating activity entry with thrombin receptor is listed as “capable of aggregating platelets directly”. Besides, the “ability to induce aggregation after incubation in plasma” value in the data set on aminopeptidase M [2] is on record as “lose their ability to induce aggregation”.

As to `CC(=O)Oc1ccccc1C(=O)O` [Aspirin, reference compound], the “effect on the agglutination assay results” value on GPIIb/IIIa receptor [1] (Aspirin 1 mM) is “did not appreciably affect the results”.

In the case of “T-11: eleven amino acid peptide lacking the three C-terminal amino acids of T-14 (SFLLRNPNDKY)”, in the data set on thrombin receptor, the “platelet activation activity relative to T-6” value is listed as ~ 20% and the “potency relative to T-14” value was “twice as potent as T-14”. In addition, the “ability to induce aggregation after incubation in plasma” value with aminopeptidase M [2] is recorded as “lose their ability to induce aggregation”.

Regarding “c7E3 Fab: GPIIb/IIIa receptor blocking agent, monoclonal antibody c7E3 Fab”, in the data set with GPIIb/IIIa receptor [3] (blockade of about 80% or more of GPIIb/IIIa receptors, often to times greater than thirty minutes), the bleeding times entry is listed as “prolongs the bleeding times”. The platelet aggregation result with GPIIb/IIIa receptor [3] (blockade of about 80% or more of an individual's GPIIb/IIIa receptors) is given as “abolishes platelet aggregation”. In addition, the antithrombotic effect entry in the data set with GPIIb/IIIa receptor [3] (patient with a platelet count greater than 900,000/μl, standard dose) is given as “virtually no antithrombotic effect”. The “GPIIb/IIIa receptor blockade (trend)” value with GPIIb/IIIa receptor [4] (setting [6]) is recorded as “increasing GPIIb/IIIa receptor blockade”. Further, the GPIIb/IIIa receptor blockade in the data set with GPIIb/IIIa receptor [4] (c7E3 Fab 0.8 μg/ml, samples with positive agglutination assay) was 56%; in the data set with GPIIb/IIIa receptor [4] (c7E3 Fab 1.2 μg/ml, samples with negative agglutination assay), 77%; with GPIIb/IIIa receptor [4] (c7E3 Fab 1.2 μg/ml, samples with positive agglutination assay) it was 77%; with GPIIb/IIIa receptor [4] (c7E3 Fab 1.5 μg/ml, samples with negative agglutination assay) it was 92%; in the data set with GPIIb/IIIa receptor [4] (c7E3 Fab 1.5 μg/ml, samples with positive agglutination assay), 68% and 82%; in the data set with GPIIb/IIIa receptor [4] (c7E3 Fab 1.8 μg/ml, samples with negative agglutination assay) it was 83% and 88% and 94%. The GPIIb/IIIa receptor blockade was 66% and 73% with GPIIb/IIIa receptor [4] (c7E3 Fab 1.8 μg/ml, samples with positive agglutination assay); 88% and 89% with GPIIb/IIIa receptor [4] (c7E3 Fab 2.4 μg/ml, samples with negative agglutination assay). Also, the agglutination assay result is recorded as “positive” with GPIIb/IIIa receptor [1] (c7E3 Fab 0.8 μg/ml) and “negative” in the data set with GPIIb/IIIa receptor [1] (c7E3 Fab 2.4 μg/ml). The agglutination of beads entry in the data set with GPIIb/IIIa receptor [1] (setting [6]) is listed as “elimination of agglutination”.

With `CC(C)C[C@@H](N)[C@H](O)C(=O)N[C@H](C(=O)N[C@H](C(=O)N[C@@H](CC(=O)O)C(=O)O)C(C)C)C(C)C` [amastatin], the “effect on platelet aggregation” value with aminopeptidase M [5] was “enhance platelet aggregation”.
